Source: PMC3818214, “Novel Disulfide Bond-Mediated Dimerization of the CARD Domain Was Revealed by the Crystal Structure of CARMA1 CARD” (PLoS ONE, 2013)

Target: the molecule itself
Assay: SEC-MALS; Superdex 200 HR 10/30, 20 mM Tris HCl, 150 mM NaCl, without DTT; mini-DAWN EOS and Optilab DSP detectors

B1: mouse CARMA1 CARD (amino acids 14-109) with C-terminal His-tag (domain or fragment, UniProt Q8CIS0 14-109, looked up)
chain: TLKDEEEALWDNVECNRHMLSRYINPAKLTPYLRQCKVIDEQDEDEVLNAPMLPSKINRAGRLLDILHTKGQRGYVVFLESLEFYYPELYKLVTGK
notes: CARMA1 (CARD11), mouse, CARD domain, amino acids 14-109; the solution experiments used the plain protein; Model built from residue 22 to 108, loop 64-70 missing; Vector pOKD (home-made); also called CARD11 CARD; not shown: His-tag, C-terminal, kept
stoichiometry N: 2
